Earlier results as cited in PMC2848813.

Molecular target: Hsp33 (Escherichia coli) (UniProt P0A6Y5)

Q: For Hsp33 (from UniProt P0A6Y5), which Kd is on record?
A: 600 nM
